# B1: Calnexin (CANX), endogenous (natural protein, UniProt P27824 21-592, looked up)
# chain: HDGHDDDVIDIEDDLDDVIEEVEDSKPDTTAPPSSPKVTYKAPVPTGEVYFADSFDRGTLSGWILSKAKKDDTDDEIAKYDGKWEVEEMKESKLPGDKGLVLMSRAKHHAISAKLNKPFLFDTKPLIVQYEVNFQNGIECGGAYVKLLSKTPELNLDQFHDKTPYTIMFGPDKCGEDYKLHFIFRHKNPKTGIYEEKHAKRPDADLKTYFTDKKTHLYTLILNPDNSFEILVDQSVVNSGNLLNDMTPPVNPSREIEDPEDRKPEDWDERPKIPDPEAVKPDDWDEDAPAKIPDEEATKPEGWLDDEPEYVPDPDAEKPEDWDEDMDGEWEAPQIANPRCESAPGCGVWQRPVIDNPNYKGKWKPPMIDNPSYQGIWKPRKIPNPDFFEDLEPFRMTPFSAIGLELWSMTSDIFFDNFIICADRRIVDDWANDGWGLKKAADGAAEPGVVGQMIEAAEERPWLWVVYILTVALPVFLVILFCCSGKKQTSGMEYKKTDAPQPDVKEEEEEKEEEKDKGDEEEEGEEKLEEKQKSDAEEDGGTVSQEEEDRKPKAEEDEILNRSPRNRKPRRE
# notes: ER-resident chaperone calnexin, endogenous; source: endogenous, HeLa-CIITA, DG-75 (B) and KG-1 (dendritic-like) lysates; endogenous in fixed HeLa-CIITA cells
# Target: T1, GFP-T6BP (TAX1BP1 / TRAF6-binding protein fused to GFP) (UniProt Q86VP1 1-789)
# T1 construct: plasmid a gift from F. Buss; it is written both GFP-T6BP and T6BP-GFP; also called T6BP-GFP; source: HeLa-CIITA, transfected, in lysate
# T1 sequence (Q86VP1 whole entry, the tested form may be a part): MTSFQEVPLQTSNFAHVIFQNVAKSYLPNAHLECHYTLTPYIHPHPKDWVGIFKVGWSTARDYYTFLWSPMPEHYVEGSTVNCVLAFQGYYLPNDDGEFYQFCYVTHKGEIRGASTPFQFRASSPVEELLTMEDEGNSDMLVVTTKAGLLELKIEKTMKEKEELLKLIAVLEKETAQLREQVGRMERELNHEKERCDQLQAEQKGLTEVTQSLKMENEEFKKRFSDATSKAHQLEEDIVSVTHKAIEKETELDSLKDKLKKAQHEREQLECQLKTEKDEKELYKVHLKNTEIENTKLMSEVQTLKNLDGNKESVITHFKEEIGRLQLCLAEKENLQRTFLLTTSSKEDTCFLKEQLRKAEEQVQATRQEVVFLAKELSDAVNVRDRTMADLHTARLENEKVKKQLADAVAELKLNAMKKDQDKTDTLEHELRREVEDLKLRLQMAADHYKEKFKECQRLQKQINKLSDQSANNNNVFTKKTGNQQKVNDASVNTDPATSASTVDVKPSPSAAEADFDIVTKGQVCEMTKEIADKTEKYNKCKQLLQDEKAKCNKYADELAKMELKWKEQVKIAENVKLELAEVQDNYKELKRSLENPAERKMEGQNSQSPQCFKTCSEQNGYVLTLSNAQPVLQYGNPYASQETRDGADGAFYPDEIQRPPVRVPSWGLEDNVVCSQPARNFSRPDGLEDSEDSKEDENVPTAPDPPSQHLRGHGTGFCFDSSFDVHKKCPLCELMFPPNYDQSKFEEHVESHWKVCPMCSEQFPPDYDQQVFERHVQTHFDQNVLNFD
# Assay: co-IP; GFP-T6BP or GFP alone from transfected HeLa-CIITA lysate on GFP-Trap beads, Western blot for CANX
# Conditions: partners not purified
binder,measurement,value
B1,fold enrichment against the GFP control,3 fold

# — article PMC9724678, “The Autophagy Receptor TAX1BP1 (T6BP) improves antigen presentation by MHC‐II molecules” (EMBO Reports, 2022)
